Article PMC4106346, “The Oligomeric States of the Purified Sigma-1 Receptor Are Stabilized by Ligands” (The Journal of Biological Chemistry, 2014)

Biological target: GpA G83I
Assay: TOXCAT
Conditions: parent: est. 100; read off a plot

## glycophorin A transmembrane control of the TOXCAT assay G83I
  response: 6.3 %GpA
